Values of other authors in paper PMC4097889.

Key:
RXRα LBD (Homo sapiens) [1] = molecular target: RXRα LBD (Homo sapiens) (UniProt P19793); assay: circular dichroism
RXRα LBD (Homo sapiens) [2] = molecular target: RXRα LBD (Homo sapiens) (UniProt P19793); assay: ITC

Sequence of UniProt P19793 (P19793 227-458): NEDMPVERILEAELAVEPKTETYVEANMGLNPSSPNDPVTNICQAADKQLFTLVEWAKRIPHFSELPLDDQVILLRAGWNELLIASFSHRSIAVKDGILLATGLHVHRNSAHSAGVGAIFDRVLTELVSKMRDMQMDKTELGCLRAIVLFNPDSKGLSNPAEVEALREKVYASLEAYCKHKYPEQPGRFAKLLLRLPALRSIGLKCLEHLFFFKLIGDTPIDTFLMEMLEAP

Substance: GRIP-1 peptide (from UniProt Q15596)
- Kd (RXRα LBD (Homo sapiens) [1]): 0.9 µM
- Kd (RXRα LBD (Homo sapiens) [2]): 0.6 µM
